B1: mAb005 (antibody, V domains shown)
VH: EVQLVESGGGLVKPGGSLKLSCAASGFTFSDYGMHWVRQAPEKGLEWVAYSNSDSTTIYYADTVKGRFTISRDNAKSTLFLQMTSLRSEDTAMYYCGRSYYSNYVDYWGQGTTLTVSS
VL: DIVMTQIPLSLPVSLGDQASISCRSSQSLVHSNGNTYLHWYLQKPGQSPKLLIYKVSNRFSGVPDRFSGSGSGTDFTLKISRVEAEDLGVYFCFQSTHVPPTFGGGTKLEIK
notes: Mouse monoclonal from hybridoma; also called mouse mAb005; original mouse clone (of mAb005)
B2: Humanized mAb005 (antibody, V domains shown)
VH: EVQLVESGGGLVQPGGSLRLSCAASGFTFSDYGMHWVRQAPGKGLEWVAYSNSDSTTIYYADTVKGRFTISRDNAKNSLYLQMNSLRAEDTAVYYCGRSYYSNYVDYWGQGTLVTVSS
VL: DVVMTQSPLSLPVTLGQPASISCRSSQSLVHSNGNTYLHWYLQRPGQSPRLLIYKVSNRFSGVPDRFSGSGSGTDFTLKISRVEAEDVGVYFCFQSTHVPPTFGQGTKLEIK
notes: also called humanized variant of mAb005
B3: mAb037 (antibody, V domains shown)
VH: EVQLQQSGPELVKPGASVKIPCKASGYTFTDYNMDWVKQSHGKSLEWIGDINPNTGGTIYNQKFKGKATLTVDKSSSTAYMELRSLTSEDTAVYYCAGEGPYYYGTTHPFAYWGQGTLVTVSA
VL: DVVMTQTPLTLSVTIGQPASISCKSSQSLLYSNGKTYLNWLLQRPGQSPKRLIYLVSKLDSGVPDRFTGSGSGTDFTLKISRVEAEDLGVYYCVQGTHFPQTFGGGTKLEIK
notes: Mouse monoclonal from hybridoma; also called mouse mAb037; original mouse clone (of mAb037)
B4: Humanized mAb037 (antibody, V domains shown)
VH: QVQLVQSGAEVKKPGASVKVSCKASGYTFTDYNMDWVRQAHGQGLEWIGDINPNTGGTIYNQKFKGRATLTVDTSISTAYMELSRLRSDDTAVYYCAGEGPYYYGTTHPFAYWGQGTLVTVSS
VL: DVVMTQSPLSLPVTLGQPASISCKSSQSLLYSNGKTYLNWLLQRPGQSPRRLIYLVSKLDSGVPDRFSGSGSGTDFTLKISRVEAEDVGVYYCVQGTHFPQTFGGGTKLEIK
notes: also called humanized variant of mAb037

Legend:
[1] = biological target: Tau in 6-month-old rTg4510 brain lysate (UniProt P10636-6 2-383, limits assumed); assay: cell-based or functional assay
Tau in 6-month-old rTg4510 brain lysate, sequence (P10636 other isoform, or with tags, fused parts or gaps limits assumed): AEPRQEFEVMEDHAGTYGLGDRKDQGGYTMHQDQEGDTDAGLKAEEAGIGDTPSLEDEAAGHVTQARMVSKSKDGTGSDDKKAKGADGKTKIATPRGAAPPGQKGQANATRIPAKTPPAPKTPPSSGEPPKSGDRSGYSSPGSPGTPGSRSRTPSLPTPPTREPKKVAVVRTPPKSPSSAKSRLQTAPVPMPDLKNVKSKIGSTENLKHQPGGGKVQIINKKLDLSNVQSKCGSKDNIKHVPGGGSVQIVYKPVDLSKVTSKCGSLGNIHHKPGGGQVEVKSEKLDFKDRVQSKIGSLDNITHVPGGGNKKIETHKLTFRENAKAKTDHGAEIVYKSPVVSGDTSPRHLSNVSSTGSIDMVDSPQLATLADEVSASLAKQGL

[2] = biological target: T1, Tau species in AD (Alzheimer's disease) brain lysate (human, UniProt P10636-8 2-441, limits assumed); assay: dot-blot on spotted AD total brain lysate, antibody in 2-fold dilutions from 6×10^-8 M
T1 construct: Endogenous Tau of a tissue lysate, not a defined construct; also called AD Tau protein; AD brain homogenate
T1 sequence (P10636 other isoform, or with tags, fused parts or gaps limits assumed): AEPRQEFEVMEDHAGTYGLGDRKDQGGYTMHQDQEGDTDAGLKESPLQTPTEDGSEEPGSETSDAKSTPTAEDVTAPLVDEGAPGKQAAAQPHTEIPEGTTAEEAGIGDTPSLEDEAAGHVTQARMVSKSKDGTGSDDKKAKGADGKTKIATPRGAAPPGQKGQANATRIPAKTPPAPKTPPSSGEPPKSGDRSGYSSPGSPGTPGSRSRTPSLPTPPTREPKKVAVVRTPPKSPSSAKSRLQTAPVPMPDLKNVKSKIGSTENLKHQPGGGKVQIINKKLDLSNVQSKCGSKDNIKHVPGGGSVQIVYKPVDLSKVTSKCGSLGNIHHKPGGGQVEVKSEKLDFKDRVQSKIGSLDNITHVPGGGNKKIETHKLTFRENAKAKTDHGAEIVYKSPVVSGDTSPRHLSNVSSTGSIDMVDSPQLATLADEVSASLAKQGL
Experimental: To facilitate the therapeutic potentials of mAb005 and mAb037, humanization of mAb005 and mAb037 was performed by grafting the complementary determining regions (CDRs) of Variable Heavy chain (VH) and Variable Light chain (VL) into a human IgG4 S228P backbone (no Fab-arm exchange mutant, Silva et al., 2015 JBC). Four point-mutations were introduced in the nearby residues surrounding the CDRs to conserve the functionality of the resulting variants. Dot-blot analysis was performed to determine the EC₅₀ of each variant, compared with the original mouse/chimeric clones as well as to visualize the specificity to AD Tau protein compared with ND Tau protein. […] Dot-blot experiments were performed by spotting of ND and AD total brain lysates in triplicate, and antibody solutions were diluted serially by a dilution factor of 2 from a maximum concentration of 6×10⁻⁸ M. Summary graphs denote Mean±SD of 3 independent experiments for mAb005 and Mean±SD of triplicated wells.

| Binder | EC50 of inhibition of Tau seeding (Tau spots per cell in Tau-LM reporter cells) [1] | EC50 [2] |
| --- | --- | --- |
| B1 | 72.2 nM | 0.4 nM |
| B2 | – | 0.43 nM |
| B3 | 22.9 nM | 0.54 nM |
| B4 | – | 0.95 nM |

— US20210163582A1 (APRINOIA THERAPEUTICS, published 2021)
